Test results as given in article PMC4500099.

Target: Mercuric ion reductase (MerA) from Metallosphaera sedula (Metallosphaera sedula)
Test: crystal structure; hanging drop; 0.085M TRIS (pH 8.5), 15% v/v glycerol, 14% w/v PEG400, 0.19M LiSO4, 20 mg/mL protein; data collected at 100 K; bound FAD; space group P22(1)2(1), two monomers per asymmetric unit

stoichiometry N: 2
Substance: Mercuric ion reductase (MerA) from Metallosphaera sedula (enzyme)
